Measurements from patent US20220323599A1, “ANTI-BCMA ANTIBODY CONJUGATE, COMPOSITIONS COMPRISING THE SAME, AND METHODS OF MAKING AND USING THE SAME” (CELGENE CORPORATION, priority 2019, published 2022).

Experiments:
[1] = target: Recombinant human BCMA ECD protein (Acro Biosystems) (human) (UniProt Q02223); assay: competition ELISA on coated human BCMA ECD, competitor BAFF at 1 ng/ml, Experiment No. 1
[2] = target: human BCMA on cells (endogenous on multiple myeloma cell lines; stably transfected 293T-hBCMA) (human) (UniProt Q02223); assay: flow cytometry, 293T-hBCMA cells
human BCMA on cells (endogenous on multiple myeloma cell lines; stably transfected 293T-hBCMA) (human), sequence (Q02223 whole entry): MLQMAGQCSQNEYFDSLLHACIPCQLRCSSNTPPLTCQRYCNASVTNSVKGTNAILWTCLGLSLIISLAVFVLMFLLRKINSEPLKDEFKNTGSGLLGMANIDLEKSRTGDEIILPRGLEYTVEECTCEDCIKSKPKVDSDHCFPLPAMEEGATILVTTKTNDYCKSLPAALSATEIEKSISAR

[3] = target: human BCMA on cells (endogenous on multiple myeloma cell lines; stably transfected 293T-hBCMA) (human) (UniProt Q02223); assay: cell-based or functional assay
[4] = target: human BCMA on cells (endogenous on multiple myeloma cell lines; stably transfected 293T-hBCMA) (human) (UniProt Q02223); assay: flow cytometry, ARP-1 cells
[5] = target: cynomolgus BCMA on stably transfected 293T cells (cynomolgus monkey); assay: flow cytometry, 293T-cBCMA cells
cynomolgus BCMA on stably transfected 293T cells (cynomolgus monkey), sequence (Q02223 other isoform, or with tags, fused parts or gaps): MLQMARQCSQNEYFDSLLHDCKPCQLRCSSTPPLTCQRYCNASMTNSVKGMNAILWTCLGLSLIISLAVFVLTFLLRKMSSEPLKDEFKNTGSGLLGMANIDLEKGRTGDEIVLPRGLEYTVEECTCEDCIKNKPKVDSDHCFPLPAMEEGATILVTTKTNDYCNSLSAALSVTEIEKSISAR

Recombinant human BCMA ECD protein (Acro Biosystems) (human), sequence (Q02223 1-54 limits assumed): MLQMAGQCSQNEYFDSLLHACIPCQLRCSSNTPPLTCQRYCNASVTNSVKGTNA

“Conjugate 1: anti-BCMA antibody J6M0 conjugated to maleimido-caproyl monomethyl auristatin F (mc-MMAF), surrogate ADC for GSK2857916” gave an IC50 [1] of 7000 pM, a Bmax [2] of 856 MFI and a cell killing EC50, ARP-1 [3] of 520 pM. For the same substance, the cell killing EC50, ARP-1, no competing reagent [3] was 600 pM, the cell killing EC50, MM.1S [3] was 680 pM and the cell killing EC50, NCI-H929 [3] was 290 pM. For the same substance, the cell killing EC50, NCI-H929, Experiment 1 [3] was 200 pM, the cell killing EC50, NCI-H929, Experiment 2 [3] was 200 pM and the cell killing EC50, NCI-H929, no competing reagent [3] was 400 pM. It also gave a cell killing EC50, OPM2, Experiment 1 [3] of 800 pM, a cell killing EC50, OPM2, Experiment 2 [3] of 900 pM and a cell killing EC50, OPM2, no competing reagent [3] of 2300 pM. It also gave a cell killing EC50, OPM-2 [3] of 1400 pM, a cell killing EC50, U266B1 [3] of 320 pM and a cell killing EC50, U266B1, Experiment 1 [3] of 200 pM. The cell killing EC50, U266B1, Experiment 2 [3] was 300 pM, the cell killing EC50, U266B1, no competing reagent [3] was 400 pM and the cell killing Span, ARP-1 [3] was 95%. For the same substance, the cell killing Span, ARP-1, no competing reagent [3] was 97%, the cell killing Span, MM.1S [3] was 86% and the cell killing Span, NCI-H929 [3] was 91%. It also gave a cell killing Span, NCI-H929, Experiment 1 [3] of 85%, a cell killing Span, NCI-H929, Experiment 2 [3] of 86% and a cell killing Span, NCI-H929, no competing reagent [3] of 86%. It also gave a cell killing Span, OPM2, Experiment 1 [3] of 95%, a cell killing Span, OPM2, Experiment 2 [3] of 94% and a cell killing Span, OPM2, no competing reagent [3] of 92%. It also gave a cell killing Span, OPM-2 [3] of 93%, a cell killing Span, RPMI-8226 [3] of 40% and a cell killing Span, U266B1 [3] of 90%. It also gave a cell killing Span, U266B1, Experiment 1 [3] of 85%, a cell killing Span, U266B1, Experiment 2 [3] of 84% and a cell killing Span, U266B1, no competing reagent [3] of 90%. It also gave a Bmax [4] of 45 MFI, a Kd [4] of 2400 pM and a Bmax [5] of 981 MFI. For the same substance, the Kd [5] was 8600 pM.
